Laboratory results taken from the RNAGym collection of RNA variant scans (doi:10.1021/acssynbio.7b00057).

B1: Pistol ribozyme (parent)
chain: GGGUCGUUGUUCCAUAAUCGCGUGGAUAUGGCACGCAAGUUUCUACCGGGCACCGUAAAUGUCCGACUGGAGCCGUUCGGGCGGCUAUAAACAGACCUCAGGCCCGAAGCGUGGCGGCACCUGCCGCCGGUGGUAAAAAAGAUCGGAAGAGCACACGUCU

Variants of: B1
Experiment: aptazyme ON/OFF ratio, guanine; higher = stronger switching; co-transcriptional cleavage with and without guanine

Aptazyme ON/OFF ratio, 1.03:
U7C G9C U10A U11C C12U C13G
U7C G9C U10A U11C C12U C13U
U7C G9C U10C U11A C13U
U7C G9C U11C C12U C13G
U7C G9C U11C C12U C13U
U7C G9U U10A U11C C12U C13G
U7C G9C C12U
U7C G9C C12A
U7C G9C U11G C13A
U7C G9C U11G C13G
U7C G9C
U7C G9C U11C C12A
U7C G9C U10A U11G C12A C13G
U7C G9U U10A U11C C13G

Aptazyme ON/OFF ratio, 1.21:
U7C G9C U11G C12U C13U

Aptazyme ON/OFF ratio, 1.22:
U7C G9U U10A U11C C12A C13A

Aptazyme ON/OFF ratio, 1.18:
U7C G9U U10A U11G C12U C13U
U7C G9U U10A U11G C12A C13U

Aptazyme ON/OFF ratio, 1.3:
U7C G9U U10A U11G C12U

Aptazyme ON/OFF ratio, 1.24:
U7C G9U U10A C12G C13A

Aptazyme ON/OFF ratio, 1.1:
U7C G9C U10G U11C C13A
U7C G9C U11G C12U C13A
U7C G9C U10G U11G C13A
U7C G9U U10A U11G C12A C13G

Aptazyme ON/OFF ratio, 1.04:
U7C G9C U10A U11C C12U C13A
U7C G9C U10G U11C C13G
U7C G9C U10C C12A
U7C G9C U10C U11C C13G
U7C G9C C12G
U7C G9C U11C C12U
U7C G9C U11C C12G
U7C G9C C12U C13G

Aptazyme ON/OFF ratio, 1.07:
U7C G9C U10A U11G C13G
U7C G9C U10A U11C C12A C13G
U7C G9C U10C C12G
U7C G9C U10A U11A C12G C13U
U7C G9U U10A U11C C13U

Aptazyme ON/OFF ratio, 1.15:
U7C G9C U10A U11G C12A C13A

Aptazyme ON/OFF ratio, 1.05:
U7C G9C U10A U11C C12A C13U
U7C G9C U10C U11A C13G
U7C G9C U11C C12U C13A
U7C G9U
U7C G9U U10A U11G C12A C13A

Aptazyme ON/OFF ratio, 1.01:
U7C G9C U10C U11C C13U
U7C G9C C12U C13A

Aptazyme ON/OFF ratio, 1.09:
U7C G9C U10A U11G C13U
U7C G9U U10A U11G C12U C13A
U7C G9C U10C U11A C13A
U7C G9C U10C C12U
U7C G9C U10G U11A C12G C13U
U7C G9C U10G U11C C12A C13G
U7C G9C U10C C12G C13A
U7C G9C U10G U11G C13U
U7C G9C U10G U11G C12A C13U

Aptazyme ON/OFF ratio, 1.27:
U7C G9U U10A C12G C13U

Aptazyme ON/OFF ratio, 1.12:
U7C G9C U10G U11C C12A C13A
U7C G9C U11G C12U C13G
U7C G9C U10C C12G C13G
U7C G9C U10A U11A C12G C13G
U7C G9C U10G U11G C12A C13G

Aptazyme ON/OFF ratio, 1.06:
U7C G9C U10G U11C C13U
U7C G9C U11G C13U
U7C G9C U10A U11G C12A C13U

Aptazyme ON/OFF ratio, 1.11:
U7C G9U U10A U11G C12U C13G
U7C G9C U10G U11A C12G C13G
U7C G9C U10G U11C C12A C13U
U7C G9C U10G U11G C13G
U7C G9U U10A U11C C13A

Aptazyme ON/OFF ratio, 1.19:
U7C G9U U10A U11G C12G

Aptazyme ON/OFF ratio, 1.29:
U7C G9U U10A U11C C12U C13U

Aptazyme ON/OFF ratio, 1.23:
U7C G9U U10A U11C C12U C13A
U7C G9U U10A U11C C12A C13U

Aptazyme ON/OFF ratio, 1.14:
U7C G9U U10A U11G C13A
U7C G9U U10A U11C C12A C13G

Aptazyme ON/OFF ratio, 1.08:
U7C G9C U10A U11C C12A C13A
U7C G9C U10C C12G C13U
U7C G9C U10A U11A C12G C13A
U7C G9U U10A U11G C12A
U7C G9C U10G U11G C12A C13A

Aptazyme ON/OFF ratio, 1.02:
U7C G9C U10C U11C C13A
U7C G9C C12U C13U

Aptazyme ON/OFF ratio, 1.13:
U7C G9C U10G U11A C12G C13A
U7C G9U U10A C12G C13G
